The source of these data is patent US20090130123A1 (published 2009).

A word on the EC50 (read off the curve): it is the concentration at which the effect is half-maximal. As usually defined, the Kd is the free concentration of one partner at which half of the binding sites on the other are occupied at equilibrium, for simple one-to-one binding. The term koff denotes a measure of how fast the partners let go of each other. For orientation: kon means the second-order rate constant of association.

Assay [1] concerns the target T1, Recombinant WNV-E protein ectodomain (West Nile virus, UniProt Q9Q6P4 291-700).
T1 construct: extracellular domain; also called rWNV-E; WNE
T1 sequence (looked up): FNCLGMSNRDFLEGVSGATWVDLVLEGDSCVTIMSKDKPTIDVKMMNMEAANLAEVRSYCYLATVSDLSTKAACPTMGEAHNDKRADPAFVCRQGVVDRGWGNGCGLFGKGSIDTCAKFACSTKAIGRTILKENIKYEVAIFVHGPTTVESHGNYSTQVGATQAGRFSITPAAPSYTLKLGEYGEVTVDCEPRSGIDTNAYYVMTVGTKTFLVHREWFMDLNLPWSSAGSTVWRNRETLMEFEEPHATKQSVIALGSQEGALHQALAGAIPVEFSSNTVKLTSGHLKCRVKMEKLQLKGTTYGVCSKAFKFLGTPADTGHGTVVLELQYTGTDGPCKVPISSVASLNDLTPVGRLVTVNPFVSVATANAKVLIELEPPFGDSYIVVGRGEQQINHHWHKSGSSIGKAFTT
Nature of the assay: ELISA; plate coated with rWNV-E (1 ug/ml), purified His6-tagged scFv, anti-His6-HRP, OD450. (In general: In an ELISA, binding on a coated surface is turned into a signal by an enzyme label.)

In assay [2] the target is T1, Recombinant WNV-E protein ectodomain. In words: SPR (Biacore 3000); scFv on NTA chip via His tag, rWNV-E in solution. (In general: Surface plasmon resonance follows binding to a sensor surface in real time, without labels.)
Assay [3] has the same target.

Read-outs that look alike come from different tables or passages of the source.

B1: scFv 10 (scFv, not shown: small tags and cut ends)
scFv: MAQVQLVQSGAEVKKPGSSVKVSCKASGYTFSGYSTHWLRQVPGQGLEWIGWDNPSSGDTTYAENFRGRVTLTRDTSITTDYLEVRGLRSDDTAVYYCARGGDDYSFDHWGQGTLVTVSSSGGGSGGGGSGGGGSQTVVTQEPSFSVSPGGTITLTCGLSSGSVFTSYYPSWYQQTPGQAPRTLIYSTNTRSSGVPDRFSGSILGNKAALTITGAQADDESDYYCVLYMGSGIGVFGTGTKVTVLGQPKAAPSAAAEQKLISEEDL
notes: also called 10 scFv; antibody 10
In the case of B1, the “EC50 (read off the curve)” value in assay [1] is ~0.2 µg/mL. Moreover, in assay [2], the Ka amounted to 2.64e+07 M⁻¹, the Kd is 37.8 nM, the off-rate (koff) turned out to be 0.0212 s⁻¹ and the kon is 561000 M⁻¹ s⁻¹.

B2: scFv 15 (scFv)
scFv: MAQVQLVQSGAEVKKPGASVKVSCKASGYTFSGYSTHWLRQVPGQGLEWIGWDNPSSGDTTYAENFRGRVTLTRDTSITTDYLEVRGLRSDDTAVYYCARGGDDYSFDHWGQGTLVTVSSGGGGSGGGGSGGGGSQSALTQPASVSGSPGQSITISCTGTNSDVGIYNLVSWYQQHPGKAPKLMIYDVSNRPSGVSSRFSGSNSGNTATLTISGLQAEDEADYYCSAHAGDNTQFGGGTKLTVLSQPKAAPSAAAEQKLISEEDL
notes: also called 15 scFv; antibody 15
With B2, in assay [2], the Ka came to 1.04e+08 M⁻¹, the Kd was found to be 9.65 nM, the off-rate constant (koff) amounted to 0.00128 s⁻¹ and the association rate constant (kon) was 133000 M⁻¹ s⁻¹. The “EC50 (read off the curve)” value in assay [3] was ~0.3 µg/mL.
